Results taken from the supplement of paper PMC10567573.

B1: EHMT1 (parent)
chain: SARQGELQKVLLMLVDGIDPNFKM

Variants of: B1
Test: protein stability index of a GFP-peptide fusion (GPS, HEK-293T) (PSI 1-6); higher = more stable
Settings: c terminus: a fixed tail appended
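Also: lentivirally expressed fusions sorted by FACS into six bins by GFP to DsRed ratio, PSI derived from sequencing read proportions per bin multiplied by bin number.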

Protein stability index, by site and new letter:
P20: H 1.75, G 1.09, Q 1.83, M 2.91, A 2.66, T 1.27, K 1.76, F 2.59, R 1.5, D 1.43
I18: E 2.49, N 2.24, H 2.42, Q 3.19, Y 2.76, L 2.07, V 1.59, R 1.66, K 1.46, A 1.18, C 2.47, F 1.81, T 2.22, S 1.97, P 1.06, W 2.54, D 2.22
L11: C 1.99, A 2.11, P 3.13, E 3.28, Y 1.65, N 3.23, T 2.36, H 2.15, M 1.38, D 3.35, F 2.49, Q 2.19, R 2.53, G 3.6, K 2.69, S 2.45, V 2.7, I 2.1
L14: V 2.53, T 1.7, E 3.22, C 1.46, Q 2.54, H 2.38, D 3.47, K 2.74, A 2.39, S 3.03, G 2.36, M 3.99, W 1.79, I 1.98, P 3.21, N 3.02, F 1.93, R 2.61, Y 1.76
V15: Y 1.68, W 2.75, C 1.64, E 2.54, R 1.65, I 1.72, P 2.39, S 1.83, M 1.59, T 1.26, D 2.69, K 2.25, Q 2.17, F 3.86, H 1.66, L 1.49, A 2.07, N 2.56, G 2
M13: S 2, L 2.11, H 1.88, I 1.04, K 1.89, G 2.37, E 3.12, A 1.73, D 2.97, Y 2.47, Q 2.09, N 2.46, T 2.35, F 1.83, R 1.73, P 3.74
L12: S 2.18, N 2.42, P 3.64, T 1.28, A 1.4, M 3.16, K 1.12, E 3.04, F 3.06, R 2.12, Q 2.02, H 2.39, D 2.79, G 2.15, C 2.31, V 1.66
D16: I 1.69, N 2.72, M 2.7, E 1.51, T 2.8, A 2.11, Q 2.49, K 2.45, F 1.6, P 2.41, L 2.31, V 2.27, W 1.96, C 1.61
N21: D 1.41
V10: P 2.43, K 2.47, T 1.99, L 1.25, H 2.16, M 2.12, I 2.01, S 2.29, Y 3.4, Q 1.72, W 1.77, N 3.15, R 1.88
G17: Q 1.61, N 2.78, K 1.36, E 2.08, L 2.07, D 1.36, P 1.97, Y 2.38, H 1.87, V 3.87, S 2.3, C 2, M 1.78, F 3.49
D19: S 2.5, E 1.5, Y 2.73, W 2.35, N 1.64, H 3.59, T 3.29, A 3.05, K 1.81, G 2.8
